Test results from publication PMC12780157 (Nature Communications, 2025).
Where two headings read alike, the source gives them in different places.

Tests used:
[1] = biological target: β-tubulin (αβ-tubulin heterodimer); experiment: X-ray co-crystal structure at […] Å; assay type: binding
[2] = biological target: recombinant Tubulin protein (cat# CSK-T240-B-T) (UniProt P02550); experiment: ITC
[3] = biological target: recombinant Tubulin protein (cat# CSK-T240-B-T) (UniProt P02550); experiment: ITC; remark: listed apart in the source
[4] = biological target: recombinant Tubulin protein (cat# CSK-T240-B-T) (UniProt P02550); experiment: ITC; remark: listed apart in the source

| Kd [1] | Kd [2] | Kd [3] | Kd [4] | Compound |
| --- | --- | --- | --- | --- |
| 150 ± 10 nM |  |  |  | COc1c(Cl)cc([C@@H]2c3cc4c(cc3C[C@H]3C(=O)NC(=O)N23)OCCO4)cc1Cl [KY216, (6R,10aS)-6-(3,5-dichloro-4-methoxyphenyl)-2,3,10a,11-tetrahydro-[1,4]dioxino[2,3-g]imidazo[1,5-b]isoquinoline-8,10(6H,9H)-dione] |
|  | 1530 nM | 520 nM | 1490 nM | recombinant VASH2 protein (cat# YHK84701) (from UniProt Q86V25 1-355) (enzyme) |
